This passage reports ELISA binding value results from patent US20190330277A1.

In test [1] the target is bRSV RB94 DSCav1 (bovine respiratory syncytial virus, strain RB94) (UniProt P23728).
The target in test [2] is RB94 dscav1T369C-T455C Long S190V. Kind of test: ELISA, variant from culture supernatant on Ni-NTA plate.
The target in test [3] is sc9-10_DS-CAV1_bRSV(RB94)_Fd_pm1_fp2_ig1. Described as above.

As to motavizumab (antibody), the results for the ELISA binding value in test [1], in test [2] and in test [3] were 0.371, 0.511 and 1.32, respectively.
